Assay results from patent US20250302947A1, “M-cell GP2-mediated lymphatic-targeted drug carriers” (Hong Kong Baptist University, priority 2022, published 2025).

Key:
[1] = Dynamic distribution of FITC-labeled polysaccharides in the gastrointestinal system and organs of mice after gavage; type: in vivo; settings: 0 to 5 h after gavage
Procedure: FTIC-RAP (10 mg in 1 mL distilled water) was orally administrated to each mouse (n=6). After the mice were sacrificed at 0, 1, 2, 3, 4, and 5 h after oral administration, blood and major tissues, including liver, spleen, kidney, stomach, small intestine, mesenteric lymph nodes (MLN), Peyer's patches (PPs), caecum, and colon, were collected and imaged using an IVIS Lumina XR in vivo imaging system (PerkinElmer) immediately. The molecular size of FITC-RAP was monitored using high-performance gel-permeation chromatography. For Western blotting (WB), PPs from different groups were collected at other time points (0, 1, 2, 3, and 4 h after oral administration) and prepared for WB. For ELISA assay, PPs were collected 24 hours after RAP treatment, then homogenized and centrifugated at 15,000 rpm for 10 min to obtain the supernatant for cytokine production assessment using ELISA kits. Similarly, the dynamic distribution of FITC-DOP control in MLN and PPs was investigated.
(§1) The tissues collected from the above dynamic distribution analysis were homogenized using a 3-fold volume of 0.1 mol/L phosphate buffer (pH 7.4) and centrifuged at 15,000 rpm for 10 min. Especially, the PP collected from the ligated loop assay model were homogenized using 200 μL PBS and centrifuged at 15,000 rpm for 10 min. The supernatant was collected and stored at −20° C. for chromatographic analysis. The separation was achieved on a TSK GMPWXL column (164× 7.8 mm i.d., 10 μm) system operated at 40° C. using an Agilent-1100 HPLC system equipped with FLD. Ammonium acetate aqueous solution (20 mM) was used as a mobile phase at a flow rate of 0.6 mL/min. The excitation wavelength and emission wavelength of FLD were 495 and 515 nm, respectively.
The intestinal contents of BALB/C mice that had received oral doses of RAP (100 mg/kg/mice) were collected at 0, 1, 2, 3, 4, 5 h after oral administration (n=6 each group) for carbohydrates detection by the phenol-sulfuric acid method. […] The plate was then cooled to RT and wiped dry to detect at A490 nm by a microplate reader. […]

human GP2+M cells = assay: Ligated loop assay on human distal ileum explants with PPs
Procedure: Twenty volunteers who needed surgery were enrolled in this study. The age of the participants ranged from 20 to 50 years. All distal ilea of the small intestine were collected after their surgeries. Twenty samples of the small intestine with PP were used in this study. In brief, the small intestines with PPs were stored in ice-cold PBS with 5% FBS after surgery. The small intestine segment was ligated with a surgical suture for the ligated loop assay. It then was injected with 10 ml FITC-RAP solution (5 mg/ml) followed by incubation at 37° C. under 5% CO2 for 2 h. PPs were collected for whole-mount staining, preparation of frozen sections, and immunofluorescence staining.

GP2+M cells of PPs = assay: Ligated intestinal loop assay with FITC-RAP; type: in vivo, C57BL/6 mice
Procedure: as §1
C57BL/6 wild-type (WT) mice, and GP2^−/− C57BL/6 mice were anesthetized using isoflurane. To prepare ligated intestinal loops, incision was made near the linea alba of the abdomen to expose the small intestine. FITC-RAP (10 mg/mL) in 100 μl PBS was injected into the ligated intestinal loop. The mice were kept under anesthesia for 1 h after the injection. PPs were excised and rinsed with PBS 5 times. The cleaned PPs were photographed using an IVIS Lumina XR and then processed for HPGPC-FLD analysis, whole-mount staining, sectioning, and further microscopic analysis.
Frozen sections of PPs from the ligated loop assay were washed three times with PBS and blocked with 5% normal goat serum in PBS for 1 h. Sections were incubated with anti-mouse GP2, anti-mouse NKM 16-2-4 antibody, or anti-mouse CD11c antibody overnight at 4° C. PPs sections were washed three times with PBS and then treated with Alexa Fluor647 secondary goat anti-rabbit, […] anti-rat antibodies for 1 h at RT, followed by three consecutive PBS washes. The cell nuclei were stained with 1 μg/mL 4′,6-diamidino-2-phenylindole (DAPI) for 15 min. Sections were washed three times with PBS and mounted with an anti-fade mounting medium. Images were captured with a Leica TCS SP8 confocal laser scanning microscope.
For whole-mount staining, mouse PPs were isolated from the small intestine and washed 3 times with 1×ice-cold PBS. The PPs were fixed in 4% paraformaldehyde overnight at 4° C. and then permeabilized with 0.1% Triton X-100 for 30 min. PPs were blocked with 5% normal goat serum in PBS for 1 h. A primary rat anti-mouse glycoprotein 2 (GP2) and 1 μg/ml DAPI in PBS were used to incubate PPs for 1 h at RT, followed by rinsing 3×5 mins with PBS. The second goat anti-rat IgG antibody conjugated with Alexa647 was further stained for 1 h at RT. PPs were washed 3×5 mins with PBS and mounted with the anti-fade reagent. Images were analyzed and captured by a confocal laser microscope (SP8, Leica Microsystems).
For the detection of RAP-induced immune responses, tumor tissues and PPs were minced into small pieces and grounded with a syringe plug. For the isolation and identification of M cell, PPs and small intestine segments collected from FITC-RAP-treated mice were incubated in PBS with 0.5 mM EDTA and stirred at 37° C. for 20 min. For the isolation and detection of dendritic cells, PPs collected from WT mice and GP2--mice were ground with a syringe plug. Tissues and cells were collected and rinsed with ice-cold PBS at 400 g for 5 min, followed by filtering through a 70 μm filter. Single cell suspensions were prepared for antibody staining. Cells were incubated with antibodies or the matching isotypes for 25 min at RT. The stained cells were rinsed twice and re-suspended in PBS and analyzed by FACSAria III (BD Biosciences). Data analysis was performed with FlowJo V10 software.

[2] = tested on: GP2+M cell (M-like cells); assay: In vitro M-cell-like model (Caco-2 / Raji B co-culture on transwell inserts); type: cell-based, human; settings: confocal microscopy
Procedure: Caco-2 cells were grown in flasks in 10% (v/v) fetal calf serum DMEM at 37° C. under a 10% CO2 water-saturated atmosphere. Caco-2 cells were grown on Transwell polyester inserts (0.3 μm pore size, 12 mm diameter, Corning Costar) coated with 100 μg/mL matrigel basement membrane matrix phenol red-free (Becton Dickinson), prepared in pure cold DMEM without phenol red. Raji B cells (5× 10^5) were resuspended in DMEM and added to the basolateral chamber of 7-day-old Caco-2 cell monolayers. The co-cultures were maintained for 5 days. Mono-culture of Caco-2 cells, cultivated as above but without the Raji B cells, were used as control. […] The transportation function of this in vitro M cell model was first validated using nanoparticle. FITC-RAP (2 mg/mL) in 400 μl DMEM were added to the upper layers of mono-culture and co-culture inserts and then incubated for 2 h at 37° C. under 5% CO2. All inserts were removed, and lower solutions were collected for chromatographic analysis. The lower solution collected from the co-culture group treated with unlabeled RAP was further used to treat RAW264.7 cells in a 96-well plate for 24 h, and the supernatants were sampled for IL-6 and IL-12 detection using ELISA kits.
Three co-culture and mono-cultures inserts were used to detect the presence of M-like cells by immunofluorescence. […]

[3] = tested on: F4/80+ macrophages / CD34+ cells in the bone marrow; settings: mouse, in vivo; cited from earlier work
[4] = tested on: F4/80+ macrophages / CD34+ cells in the bone marrow; settings: mouse, in vivo, po
[5] = C57BL/6 wild-type mice, 1 hr after injection

Substance: FITC-RAP: RAP labeled with fluorescein isothiocyanate isomer I (FITC)
- fluorescence in the liver, kidney, spleen, mesenteric lymph nodes (MLN), and circulation [1]: no detectable increase
- integrity in the caecum and colon (gel permeation chromatography) ([1]; 100 mg/kg): immediately degraded
- integrity in the small intestine (gel permeation chromatography) ([1]; 100 mg/kg): remained intact in the small intestine for several hours
- co-localization of FITC-RAP puncta with GP2 (human GP2+M cells; human PP domes, whole-mount staining): most of which were positive for GP2
- transport into human PPs by M cells (human GP2+M cells; human distal ileum explants, 5 mg/ml, 2 h): could be transported into PPs
- integrity in PPs (HPGPC-FLD) (GP2+M cells of PPs; [5]): undegraded form
- localization in gut loop (whole animal imaging) (GP2+M cells of PPs; [5]): concentrated in regions associated with PPs
- positive signals of FITC-RAP in PPs, GP2-/- versus WT mice (GP2+M cells of PPs; GP2-/- mice, IVIS imaging, HPGPC-FLD): significantly decreased
- internalization into M cells (whole-mount confocal images) (GP2+M cells of PPs; wild-type mice): internalized into M cells
- uptake by GP2+M cells versus other intestinal epithelial cells (flow cytometry) (GP2+M cells of PPs; wild-type mice): GP2+M cells instead of other intestinal epithelial cells accumulated FITC-RAP
- co-localization with GP2 receptors on the M cell apical surface (frozen sections) (GP2+M cells of PPs; wild-type mice, confocal microscopy): precisely co-localized
- internalization by GP2+M cell in co-culture inserts [2]: internalized by GP2+M cell
- binding to CD34+ cells in the bone marrow [3]: binding with CD34+ cells in the bone marrow
- binding to F4/80+ macrophages in the bone marrow [4]: could also bind
